This is an account of results in paper PMC10837206, “R-Spondin 2 governs Xenopus left-right body axis formation by establishing an FGF signaling gradient” (Nature Communications, 2024).

In assay [1] the target is T1, recombinant human FGFR4 Fc Chimera (human, UniProt P22455 22-369).
T1 construct: Fibroblast Growth Factor receptor 4 (FGFR4), human, extracellular domain; also called FGFR4^ECD; extracellular domain (ECD) of FGFR4; source: bought: R&D systems 685-FR and BioLegend 752502
T1 sequence (looked up): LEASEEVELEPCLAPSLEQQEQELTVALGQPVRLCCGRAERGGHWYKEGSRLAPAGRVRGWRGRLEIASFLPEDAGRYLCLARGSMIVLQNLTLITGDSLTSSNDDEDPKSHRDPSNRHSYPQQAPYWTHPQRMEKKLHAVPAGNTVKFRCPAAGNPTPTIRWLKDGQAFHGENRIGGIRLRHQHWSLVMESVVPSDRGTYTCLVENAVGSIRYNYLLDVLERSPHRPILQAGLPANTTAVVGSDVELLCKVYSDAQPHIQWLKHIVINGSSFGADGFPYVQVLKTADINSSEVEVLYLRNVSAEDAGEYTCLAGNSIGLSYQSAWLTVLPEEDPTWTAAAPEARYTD
Kind of assay: in vitro competitive binding assay (solid phase, bound AP activity); as a8; the peptide (100 uM) against coated FGFR4 Fc Chimera. As to conditions: both partners purified.

Assay [2] concerns the target T1, recombinant human FGFR4 Fc Chimera. Nature of the assay: in vitro binding assay (solid phase, bound AP activity); titration of RSPO2-AP on coated FGFR4 Fc Chimera (R&D systems 685-FR); Scatchard analysis. The settings on record: one partner purified.

B1: TK peptide (10-mer derived from the human RSPO2 TSP1 domain) (peptide)
peptide: TRQIVKKPVK
notes: stretch of the TSP1 domain of human R-Spondin 2 (RSPO2)
As for B1, the binding result in assay [1] is “binds”.

B2: KC peptide (10-mer derived from the human RSPO2 TSP1 domain) (peptide)
peptide: KKPVKDTILC
notes: as for B1
Turning to B2, the binding result in assay [1] is reported as “binds”.

B3: human RSPO2-AP (alkaline-phosphatase-tagged R-Spondin 2 fusion protein) (ligand, UniProt Q6UXX9 22-243, looked up)
chain: QGNRWRRSKRASYVSNPICKGCLSCSKDNGCSRCQQKLFFFLRREGMRQYGECLHSCPSGYYGHRAPDMNRCARCRIENCDSCFSKDFCTKCKVGFYLHRGRCFDECPDGFAPLEETMECVEGCEVGHWSEWGTCSRNNRTCGFKWGLETRTRQIVKKPVKDTILCPTIAESRRCKMTMRHCPGGKRTPKAKEKRNKKKKRKLIERAQEQHSVFLATDRANQ
notes: R-Spondin 2 (RSPO2), human; also called R2; source: HEK293T, transfected, conditioned medium
In the case of B3, the Kd in assay [2] turned out to be 1.5 nM.

As a reminder, the Kd is the equilibrium constant for the complex coming apart.
